Publication PMC9481563, “Structural insights into the pSer/pThr dependent regulation of the SHP2 tyrosine phosphatase in insulin and CD28 signaling” (Nature Communications, 2022)
Where no end group is shown, it is not given here. [ ]: non-standard residue; d: D form. pY = N[C@@H](Cc1ccc(OP(=O)(O)O)cc1)C(=O)O; pT = C[C@@H](OP(=O)(O)O)[C@H](N)C(=O)O; pS = N[C@@H](COP(=O)(O)O)C(=O)O

Assays:
Experiment in all cases: fluorescence polarisation; competitive titration: labelled CF-ppIRS1 and protein both fixed (50-80% saturation), unlabelled competitor peptide varied; triplicates; Kd from cubic fit
Settings in all cases: both partners purified
[1] = molecular target: T1, PIK3R1 (p85) C-terminal SH2 domain (614-724) (human, UniProt P27986 614-724)
T1 construct: PIK3R1 regulatory subunit of PI3K (p85), cSH2 domain, cloned from a HEK293T cDNA pool, UniProt P27986, residues 614-724; also called cSH2; PI3KR1 cSH2; source: E. coli BL21 (DE3), purified (Ni-NTA, anion exchange)
T1 sequence (P27986 614-724): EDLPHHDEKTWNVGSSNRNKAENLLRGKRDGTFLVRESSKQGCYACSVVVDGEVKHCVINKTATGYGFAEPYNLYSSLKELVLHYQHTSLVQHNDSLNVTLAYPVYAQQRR

[2] = molecular target: T2, PIK3R1 (p85) N-terminal SH2 domain (321-433) (human, UniProt P27986 321-433)
T2 construct: PIK3R1 regulatory subunit of PI3K (p85), nSH2 domain, cloned from a HEK293T cDNA pool, UniProt P27986, residues 321-433; also called nSH2; PI3KR1 nSH2; source: E. coli BL21 (DE3), purified (Ni-NTA, anion exchange)
T2 sequence (P27986 321-433): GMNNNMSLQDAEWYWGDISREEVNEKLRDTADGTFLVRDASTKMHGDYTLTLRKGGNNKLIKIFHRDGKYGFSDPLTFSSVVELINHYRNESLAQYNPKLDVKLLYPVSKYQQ

[3] = molecular target: T3, PTPRε first catalytic domain, inactive C335S mutant (107-399), MBP-tagged (human, UniProt P23469 107-399, C335S)
T3 construct: PTPRε receptor tyrosine phosphatase, first phosphatase domain, cloned from a HEK293T cDNA pool, UniProt P23469, residues 107-399; first cloned into pBH4 (N-terminal His6); also called receptor tyrosine phosphatase PTPRε; source: E. coli BL21 (DE3), purified (Ni-NTA, anion exchange)
T3 sequence (P23469 107-399 C335S): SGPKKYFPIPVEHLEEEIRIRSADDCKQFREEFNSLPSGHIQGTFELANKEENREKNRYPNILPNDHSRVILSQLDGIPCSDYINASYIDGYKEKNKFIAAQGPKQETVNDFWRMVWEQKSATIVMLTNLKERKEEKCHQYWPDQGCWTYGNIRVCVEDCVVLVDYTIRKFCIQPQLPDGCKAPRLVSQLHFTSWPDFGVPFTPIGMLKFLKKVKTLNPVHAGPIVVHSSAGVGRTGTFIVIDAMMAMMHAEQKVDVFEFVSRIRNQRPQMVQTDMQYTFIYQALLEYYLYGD

Binder	binding result [1]	binding result [2]	binding result [3]
GRKGSGD[pY]MPMSPKS (human IRS1, 2nd YxxMSP motif around Y632, 15 amino acids; also called singly phosphorylated model peptide; pTyr peptide; source: synthetic peptide, bought: GeneScript Inc) [p0IRS1, IRS1 peptide with phosphotyrosine only (pY632)]	binds	binds	
RSRLLHSD[pY]MNMTPRR (human CD28 T-cell costimulatory receptor, cytoplasmic YMNMTP motif, 16 amino acids; also called singly Tyr phosphorylated CD28 peptide; source: synthetic peptide, bought: GeneScript Inc) [p0CD28, CD28 peptide with phosphotyrosine only (pY191)]	binds	binds	binds
GRKGSGD[pY]MPM[pS]PKS (human IRS1, 2nd YxxMSP motif around Y632, 15 amino acids; also called pY632-pS636 peptide; dually phosphorylated model peptide; source: synthetic peptide, bought: GeneScript Inc) [ppIRS1, IRS1 peptide dually phosphorylated (pY632 + pS636)]	binds	binds	
RSRLLHSD[pY]MNM[pT]PRR (human CD28 T-cell costimulatory receptor, cytoplasmic YMNMTP motif, 16 amino acids; also called pY191-pT195 peptide; source: synthetic peptide, bought: GeneScript Inc) [ppCD28, CD28 peptide dually phosphorylated (pY191 + pT195)]	binds	binds	binds
